Results as given in patent publication US20210024639A1 (AGOMAB THERAPEUTICS, published 2021).
One block for each binder: values may come before it.

Assays:
[1] = molecular target: T1, native human MET on living human cells (human, UniProt P08581 25-1390); experiment: cell-based or functional assay
[2] = molecular target: T2, native mouse MET on living mouse cells (mouse, UniProt P16056 25-1379); experiment: cell-based or functional assay
[3] = molecular target: T1, native human MET on living human cells; experiment: cell-based or functional assay; remark: listed apart in the source
[4] = molecular target: T2, native mouse MET on living mouse cells; experiment: cell-based or functional assay; remark: listed apart in the source
[5] = molecular target: T1, native human MET on living human cells; experiment: flow cytometry, A549 cells
Procedure: (§1) We also analysed whether chimeric anti-MET antibodies bound to native human and mouse MET in living cells. […] Antibody binding to cells was analysed by flow cytometry using phycoerythrin-conjugated anti-human IgG1 antibodies (eBioscience) and a CyAn ADP analyser (Beckman Coulter). As a positive control for human MET binding, we used a commercial mouse anti-human MET antibody (R&D Systems) and phycoerythrin-conjugated anti-mouse IgG1 antibodies (eBioscience). As a positive control for mouse MET binding we used a commercial goat anti-mouse MET antibody (R&D Systems) and phycoerythrin-conjugated anti-goat IgG1 antibodies (eBioscience). […] Consistent with the data obtained in ELISA, maximal binding (EMAX) varied depending on antibody, but was similar in human and mouse cells.

[6] = molecular target: T2, native mouse MET on living mouse cells; experiment: flow cytometry, MLP29 cells
Procedure: as §1

[7] = molecular target: human MET ECD mutant A (mutations 1, 2, 3) (human) (UniProt P08581); experiment: ELISA, MET ECD mutant in solid phase, mAb 0-50 nM
[8] = molecular target: human MET ECD mutant D (mutations 1, 2) (human) (UniProt P08581); experiment: ELISA, MET ECD mutant in solid phase, mAb 0-50 nM
[9] = molecular target: human MET ECD mutant E (mutations 2, 3, 4) (human) (UniProt P08581); experiment: ELISA, MET ECD mutant in solid phase, mAb 0-50 nM
[10] = molecular target: human MET ECD mutant H (mutations 2, 4) (human) (UniProt P08581); experiment: ELISA, MET ECD mutant in solid phase, mAb 0-50 nM
[11] = molecular target: T3, human MET extracellular domain (ECD) (human, UniProt P08581 25-932); experiment: ELISA, MET ECD in solid phase, mAb 0-50 nM
T3 construct: range 1-932; recombinant ECD; also called hMET; human MET ECD
Procedure: Using human MET as a template, we mutagenized each of these residues in different permutations, generating a series of MET mutants that are fully human except for specific residues, which are llama. Next, we tested the affinity of selected SEMA-binding mAbs (71D6, 71C3, 71D4, 71A3, 71G2) and PSI-binding mAbs (76H10 and 71G3) for these MET mutants by ELISA. To this end, the various MET proteins were immobilized in solid phase (100 ng/well in a 96-well plate) and then exposed to increasing concentrations of antibodies (0-50 nM) solution. […] Wild-type human MET was used as positive control.
TABLE 18 The epitopes of MET responsible for agonistic antibody binding represent residues conserved among H. sapiens, M. musculus, R. norvegicus, M. fascicularis but not among the same species and L. glama. The relevance of residues conserved among human, mouse, rat, cynomolgus monkey but not llama MET for binding to agonistic mAbs was tested by ELISA. Wild-type (WT) or mutant (MT) human MET ECD was immobilized in solid phase and exposed to increasing concentrations of mAbs in solution. […] All binding values were normalized to the WT protein and are expressed as % binding (EMAX) compared to WT MET.

[12] = molecular target: T4, human MET-Fc chimeric protein (R&D Systems) (human, UniProt P08581 25-932); experiment: competition ELISA, hMET-Fc in solid phase, competitor 0.3 nM biotinylated hHGF
T4 construct: extracellular domain; bought (R&D Systems); also called hMET; not shown: Fc portion of human IgG1
Procedure: (§2) To investigate along this line, we tested the competition between mAbs and HGF by ELISA. Recombinant human and mouse HGF (R&D Systems) were biotinylated at the N-terminus using NHS-LC-biotin (Thermo Scientific). MET-Fc protein, either human or mouse (R&D Systems), was immobilized in solid phase and then exposed to 0.3 nM biotinylated HGF, either human or mouse, in the presence of increasing concentrations of antibodies (0-120 nM).
(§3) A MET-Fc chimeric protein (either human or mouse) was immobilized in solid phase and exposed to a fixed concentration of biotinylated HGF (either human or mouse), in the presence of increasing concentrations of antibodies. […] Antibody-HGF competition is expressed as IC₅₀ (the concentration that achieves 50% competition) and IMAX (the maximum % competition reached at saturation).

[13] = molecular target: T5, mouse MET-Fc chimeric protein (R&D Systems) (mouse, UniProt P16056 25-929, limits assumed); experiment: competition ELISA, mMET-Fc in solid phase, competitor 0.3 nM biotinylated mHGF
T5 construct: bought (R&D Systems); also called mMET; not shown: Fc
Procedure: as §2, §3

- cell scattering score, HPAF-II, 0.001 nM [1]: 0 score 0-4
- cell scattering score, HPAF-II, 0.004 nM [1]: 0 score 0-4
- cell scattering score, HPAF-II, 0.012 nM [1]: 2 score 0-4
- cell scattering score, HPAF-II, 0.037 nM [1]: 3 score 0-4
- cell scattering score, HPAF-II, 0.111 nM [1]: 3 score 0-4
- cell scattering score, HPAF-II, 0.333 nM [1]: 4 score 0-4
- cell scattering score, HPAF-II, 1.000 nM [1]: 4 score 0-4
- cell scattering score, HPAF-II, 3.000 nM [1]: 4 score 0-4
- cell scattering score, HPAF-II, 9.000 nM [1]: 4 score 0-4
- cell scattering score, MLP29, 0.001 nM [2]: 0 score 0-4
- cell scattering score, MLP29, 0.004 nM [2]: 0 score 0-4
- cell scattering score, MLP29, 0.012 nM [2]: 2 score 0-4
- cell scattering score, MLP29, 0.037 nM [2]: 3 score 0-4
- cell scattering score, MLP29, 0.111 nM [2]: 3 score 0-4
- cell scattering score, MLP29, 0.333 nM [2]: 4 score 0-4
- cell scattering score, MLP29, 1.000 nM [2]: 4 score 0-4
- cell scattering score, MLP29, 3.000 nM [2]: 4 score 0-4
- cell scattering score, MLP29, 9.000 nM [2]: 4 score 0-4
- EMAX (% relative to control) [5]: 161%
- EMAX (% relative to control) [6]: 144%
- % binding (EMAX) compared to WT MET [7]: 117%
- % binding (EMAX) compared to WT MET [8]: 128%
- % binding (EMAX) compared to WT MET [9]: 65.4%
- % binding (EMAX) compared to WT MET [10]: 76.7%
- % binding (EMAX) compared to WT MET [11]: 100%
- IMAX (maximum % competition) [12]: 93.4%
- IMAX (maximum % competition) [13]: 87.7%
B1: chimeric llama-human IgG1 mAb 71A3 (antibody, V domains shown)
VH: EVQLVESGGGLVQPGGSLRLSCAASGFSFKDYDITWVRQAPGKGLEWVSTITSRSGSTSYVDSVKGRFTISGDNAKNTLYLQMNSLKPEDTAVYYCAKVYATTWDVGPLGYGMDYWGKGTLVTVSS
VL: SYELTQPSALSVTLGQTAKITCQGGSLGSSYAHWYQQKPGQAPVLVIYDDDSRPSGIPERFSGSSSGGTATLTISGAQAEDEGDYYCQSADSSGNAAVFGGGTHLTVL
- protection from staurosporine, viability EC50, MCF10A [3]: < 0.5 nM
- protection from staurosporine, viability EMAX, MCF10A [3]: 71.7%
- protection from staurosporine, viability EC50, MLP29 [4]: < 0.5 nM
- protection from staurosporine, viability EMAX, MLP29 [4]: 70.5%

- cell scattering score, HPAF-II, 0.001 nM [1]: 0 score 0-4
- cell scattering score, HPAF-II, 0.004 nM [1]: 1 score 0-4
- cell scattering score, HPAF-II, 0.012 nM [1]: 2 score 0-4
- cell scattering score, HPAF-II, 0.037 nM [1]: 3 score 0-4
- cell scattering score, HPAF-II, 0.111 nM [1]: 4 score 0-4
- cell scattering score, HPAF-II, 0.333 nM [1]: 4 score 0-4
- cell scattering score, HPAF-II, 1.000 nM [1]: 4 score 0-4
- cell scattering score, HPAF-II, 3.000 nM [1]: 4 score 0-4
- cell scattering score, HPAF-II, 9.000 nM [1]: 4 score 0-4
- cell scattering score, MLP29, 0.001 nM [2]: 0 score 0-4
- cell scattering score, MLP29, 0.004 nM [2]: 1 score 0-4
- cell scattering score, MLP29, 0.012 nM [2]: 2 score 0-4
- cell scattering score, MLP29, 0.037 nM [2]: 3 score 0-4
- cell scattering score, MLP29, 0.111 nM [2]: 4 score 0-4
- cell scattering score, MLP29, 0.333 nM [2]: 4 score 0-4
- cell scattering score, MLP29, 1.000 nM [2]: 4 score 0-4
- cell scattering score, MLP29, 3.000 nM [2]: 4 score 0-4
- cell scattering score, MLP29, 9.000 nM [2]: 4 score 0-4
- EMAX (% relative to control) [5]: 113%
- EMAX (% relative to control) [6]: 121%
- % binding (EMAX) compared to WT MET [7]: 103%
- % binding (EMAX) compared to WT MET [8]: 128%
- % binding (EMAX) compared to WT MET [9]: 43.6%
- % binding (EMAX) compared to WT MET [10]: 38.6%
- % binding (EMAX) compared to WT MET [11]: 100%
- IMAX (maximum % competition) [12]: 98.3%
- IMAX (maximum % competition) [13]: 90.5%
B2: chimeric llama-human IgG1 mAb 71D6 (antibody, V domains shown)
VH: ELQLVESGGGLVQPGGSLRLSCAASGFTFSSYGMSWVRQAPGKGLEWVSAINSYGGSTSYADSVKGRFTISRDNAKNTLYLQMNSLKPEDTAVYYCAKEVRADLSRYNDYESYDYWGQGTQVTVSS
VL: QPVLNQPSALSVTLGQTAKITCQGGSLGARYAHWYQQKPGQAPVLVIYDDDSRPSGIPERFSGSSSGGTATLTISGAQAEDEGDYYCQSADSSGSVFGGGTHLTVL
- protection from staurosporine, viability EC50, MCF10A [3]: 1.48 nM
- protection from staurosporine, viability EMAX, MCF10A [3]: 66.8%
- protection from staurosporine, viability EC50, MLP29 [4]: 0.95 nM
- protection from staurosporine, viability EMAX, MLP29 [4]: 68.3%
